US7351690B2, “Knockout identification of target-specific sites in peptides” (priority 2000, dated 2008)
Square brackets hold non-standard residues; d marks the D form. Ends that are not written are not given here. Nle = CCCC[C@H](N)C(=O)O

Columns and labels:
[1] = target: T1, MC1-R (Mus musculus, UniProt Q01727); assay: competitive inhibition binding assay, 125I-NDP-alpha-MSH, B-16 mouse melanoma cell membranes; details: 1 μM test peptide; 0.4 nM 125I-NDP-alpha-MSH; B-16 mouse melanoma cell membranes
T1 construct: membranes prepared from hMC3-R, hMC4-R, hMC5-R, and B-16 mouse melanoma cells (containing MC1-R); endogenous in cells; host or cells: B-16 mouse melanoma cells (membranes)
T1 sequence (Q01727 whole entry): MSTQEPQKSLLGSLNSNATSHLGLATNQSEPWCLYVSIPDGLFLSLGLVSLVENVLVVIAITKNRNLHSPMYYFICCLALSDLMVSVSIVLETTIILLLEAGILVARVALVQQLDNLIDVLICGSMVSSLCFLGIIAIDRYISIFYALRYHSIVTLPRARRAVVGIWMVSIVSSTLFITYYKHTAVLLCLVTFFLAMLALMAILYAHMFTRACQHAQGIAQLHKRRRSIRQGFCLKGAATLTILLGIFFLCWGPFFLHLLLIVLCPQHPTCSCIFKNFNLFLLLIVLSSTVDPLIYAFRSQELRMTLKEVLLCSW
Description: (§1) The competitive inhibition binding assay was conducted using membranes prepared from hMC3-R, hMC4-R, hMC5-R, and B-16 mouse melanoma cells (containing MC1-R) using 0.4 nM ^125I-NDP-alpha-MSH (New England Nuclear, Boston, Mass., USA) in 50 mM HEPES buffer containing 1 mM MgCl2, 2 mM CaCl2, and 5 mM KCl, at pH 7.2. The assay tube also contained a chosen concentration of the test peptide of this invention complexed to a rhenium metal ion, typically at a 1 μM concentration, for determining its efficacy in inhibiting the binding of ^125I-NDP-alpha-MSH to its receptor. Non-specific binding was measured by complete inhibition of binding of ^125I-NDP-alpha-MSH in the assay with the presence of 1 μM alpha-MSH. Incubation was for 90 minutes at room temperature, after which the assay mixture was filtered and the membranes washed three times with ice cold buffer. The filter was dried and counted in a gamma counter for remaining radioactivity bound to the membranes. 100% specific binding was defined as the difference in radioactivity (cpm) bound to cell membranes in the absence and presence of 1 μM alpha-MSH. The cpm obtained in presence of test compounds were normalized with respect to 100% specific binding to determine the percent inhibition of ^125I-NDP-alpha MSH binding. Each assay was conducted in triplicate and the actual mean valves are described.

[2] = target: T2, hMC3-R (Homo sapiens, UniProt P41968); assay: competitive inhibition binding assay, 125I-NDP-alpha-MSH, hMC3-R membranes; details: 1 μM test peptide; 0.4 nM 125I-NDP-alpha-MSH; hMC3-R membranes
T2 construct: expressed in transfected cells
T2 sequence (P41968 whole entry): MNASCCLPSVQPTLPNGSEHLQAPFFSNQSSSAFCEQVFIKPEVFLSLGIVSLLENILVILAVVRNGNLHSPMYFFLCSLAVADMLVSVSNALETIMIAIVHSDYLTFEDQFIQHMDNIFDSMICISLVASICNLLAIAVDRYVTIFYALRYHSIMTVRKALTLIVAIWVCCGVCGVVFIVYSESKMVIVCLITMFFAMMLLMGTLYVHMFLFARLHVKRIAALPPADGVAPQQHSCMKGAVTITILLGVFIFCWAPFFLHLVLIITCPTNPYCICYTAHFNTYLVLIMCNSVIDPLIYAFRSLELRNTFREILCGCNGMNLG
Description: as §1

[3] = target: T3, hMC4-R (Homo sapiens, UniProt P32245); assay: competitive inhibition binding assay, 125I-NDP-alpha-MSH, hMC4-R membranes; details: 1 μM test peptide; 0.4 nM 125I-NDP-alpha-MSH; hMC4-R membranes
T3 construct: expressed in transfected cells
T3 sequence (P32245 whole entry): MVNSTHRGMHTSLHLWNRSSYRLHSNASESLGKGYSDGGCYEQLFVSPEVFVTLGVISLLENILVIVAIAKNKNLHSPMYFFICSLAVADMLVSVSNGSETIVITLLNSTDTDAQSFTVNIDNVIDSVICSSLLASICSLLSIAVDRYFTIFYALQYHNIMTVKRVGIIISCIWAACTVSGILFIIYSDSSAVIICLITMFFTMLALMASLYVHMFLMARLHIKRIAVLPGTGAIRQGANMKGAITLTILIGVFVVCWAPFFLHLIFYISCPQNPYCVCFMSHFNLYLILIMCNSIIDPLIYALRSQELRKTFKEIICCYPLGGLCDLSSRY
Description: as §1

[4] = target: T4, hMC5-R (Homo sapiens, UniProt P33032); assay: competitive inhibition binding assay, 125I-NDP-alpha-MSH, hMC5-R membranes; details: 1 μM test peptide; 0.4 nM 125I-NDP-alpha-MSH; hMC5-R membranes
T4 construct: expressed in transfected cells
T4 sequence (P33032 whole entry): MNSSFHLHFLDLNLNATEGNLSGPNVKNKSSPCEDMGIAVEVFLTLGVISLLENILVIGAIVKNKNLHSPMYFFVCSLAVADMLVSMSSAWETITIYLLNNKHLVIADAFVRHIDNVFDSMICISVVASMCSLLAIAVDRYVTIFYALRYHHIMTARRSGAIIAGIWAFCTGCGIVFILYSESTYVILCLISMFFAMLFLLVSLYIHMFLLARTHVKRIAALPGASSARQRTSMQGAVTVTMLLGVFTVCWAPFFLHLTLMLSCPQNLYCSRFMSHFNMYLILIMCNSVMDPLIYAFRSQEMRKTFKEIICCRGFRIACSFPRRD
Description: as §1

Substance | % Inhibition at 1 μM at Melanocortin Receptor 1 [1] [%] | % Inhibition at 1 μM at Melanocortin Receptor 3 [2] [%] | % Inhibition at 1 μM at Melanocortin Receptor 4 [3] [%] | % Inhibition at 1 μM at Melanocortin Receptor 5 [4] [%]
Ac-Ser-Tyr-Ser-Nle-Glu-His-Phe-Cys-Arg-Trp-Gly-Lys-Pro-Val-NH2 (Ac-SYS[Nle]EHFCRWGKPV-NH2; not fully specified (bridges); printed as Ac-Ser-Tyr-Ser-Nle-Glu-His-Phe-Cys-Arg-Trp-Gly-Lys-Pro-Val-NH2; numbers in words are those of the source; also: oxorhenium(V) N3S1 chelate (Re(V)=O)) [1-7] | 68 | 0 | 0 | 0
Ac-Ser-Tyr-Ser-Nle-Glu-His-Phe-D-Cys-Arg-Trp-Gly-Lys-Pro-Val-NH2 ({Ac-Ser-Tyr-Ser-Nle-Glu-H2N}-F[dC]RWGKPV-NH2; numbers in words are those of the source; also: oxorhenium(V) N3S1 chelate via Cys (Re(V)=O)) [2-7] | 54 | 0 | 6 | 0
Tyr-Val-Cys-Nle-Gly-His-D-Phe-Arg-Trp-Asp-Arg-Phe-NH2 (YVC[Nle]GH[dF]RWDRF-NH2; also: Re complex) [3-11] | 95 | 85 | 82 | 92
Tyr-Val-Cys-Nle-Gly-His-Phe-Arg-Trp-Asp-Arg-Phe-NH2 (YVC[Nle]GHFRWDRF-NH2; not fully specified (bridges); printed as Tyr-Val-Cys-Nle-Gly-His-Phe-Arg-Trp-Asp-Arg-Phe-NH2; numbers in words are those of the source; also: oxorhenium(V) N3S1 chelate (Re=O) with Cys) [4-10] | 28 | 10 | 2 | 17
Tyr-Val-Nle-Cys-Gly-His-D-Phe-Arg-Trp-Asp-Arg-Phe-NH2 (YV[Nle]CGH[dF]RWDRF-NH2; not fully specified (bridges); printed as Tyr-Val-Nle-Cys-Gly-His-D-Phe-Arg-Trp-Asp-Arg-Phe-NH2; numbers in words are those of the source; also: oxorhenium(V) N3S1 chelate complex (Re=O)) [3-10] | 84 | 78 | 80 | 86
Tyr-Val-Nle-Cys-Gly-His-Phe-Arg-Trp-Asp-Arg-Phe-NH2 (YV[Nle]CGHFRWDRF-NH2; not fully specified (bridges); printed as Tyr-Val-Nle-Cys-Gly-His-Phe-Arg-Trp-Asp-Arg-Phe-NH2; numbers in words are those of the source; also: oxorhenium(V) N3S1 chelate (Re=O) with Cys) [4-9] | 1 | 19 | 4 | 43
Tyr-Val-Nle-Cys-His-D-Phe-Arg-Trp-Asp-Arg-Phe-NH2 (YV[Nle]CH[dF]RWDRF-NH2; not fully specified (bridges); printed as Tyr-Val-Nle-Cys-His-D-Phe-Arg-Trp-Asp-Arg-Phe-NH2; numbers in words are those of the source; also: oxorhenium(V) N3S1 chelate complex (Re=O)) [5-8] | 95 | 89 | 86 | 98
Tyr-Val-Nle-Gly-Cys-D-Phe-Arg-Trp-Asp-Arg-Phe-NH2 (YV[Nle]GC[dF]RWDRF-NH2; not fully specified (bridges); printed as Tyr-Val-Nle-Gly-Cys-D-Phe-Arg-Trp-Asp-Arg-Phe-NH2; numbers in words are those of the source; also: oxorhenium(V) N3S1 chelate complex (Re=O)) [5-7] | 89 | 70 | 69 | 88
Tyr-Val-Nle-Gly-Cys-His-D-Phe-Arg-Trp-Asp-Arg-Phe-NH2 (YV[Nle]GCH[dF]RWDRF-NH2; not fully specified (bridges); printed as Tyr-Val-Nle-Gly-Cys-His-D-Phe-Arg-Trp-Asp-Arg-Phe-NH2; numbers in words are those of the source; also: oxorhenium(V) N3S1 chelate complex (Re=O)) [3-9] | 77 | 69 | 55 | 67
Tyr-Val-Nle-Gly-Cys-His-Phe-Arg-Trp-Asp-Arg-Phe-NH2 (YV[Nle]GCHFRWDRF-NH2; not fully specified (bridges); printed as Tyr-Val-Nle-Gly-Cys-His-Phe-Arg-Trp-Asp-Arg-Phe-NH2; numbers in words are those of the source; also: oxorhenium(V) N3S1 chelate (Re=O) with Cys) [4-8] | 13 | 33 | −1 | 45
Tyr-Val-Nle-Gly-His-Cys-Arg-Trp-Asp-Arg-Phe-NH2 (YV[Nle]GHCRWDRF-NH2; numbers in words are those of the source; also: oxorhenium(V) N3S1 chelate (Re=O) with Cys) [5-6] | 74 | 26 | 4 | 21
Tyr-Val-Nle-Gly-His-Cys-D-Phe-Arg-Trp-Asp-Arg-Phe-NH2 [3-7] (YV[Nle]GHC[dF]RWDRF-NH2; numbers in words are those of the source; also: oxorhenium(V) N3S1 chelate complex (Re=O)) | 39 | 50 | 28 | 56
Tyr-Val-Nle-Gly-His-Cys-D-Phe-Arg-Trp-Asp-Arg-Phe-NH2 [3-8] (YV[Nle]GHC[dF]RWDRF-NH2; numbers in words are those of the source; also: oxorhenium(V) N3S1 chelate complex (Re=O)) | 86 | 60 | 55 | 84
Tyr-Val-Nle-Gly-His-Cys-Phe-Arg-Trp-Asp-Arg-Phe-NH2 (YV[Nle]GHCFRWDRF-NH2; numbers in words are those of the source; also: oxorhenium(V) N3S1 chelate (Re=O) with Cys) [4-7] | −4 | 17 | 4 | 15
Tyr-Val-Nle-Gly-His-D-Phe-Arg-Cys-Asp-Arg-Phe-NH2 (YV[Nle]GH[dF]RCDRF-NH2; numbers in words are those of the source; also: oxorhenium(V) N3S1 chelate complex (Re=O)) [5-4] | 86 | 11 | 18 | 58
Tyr-Val-Nle-Gly-His-D-Phe-Arg-Cys-Trp-Asp-Arg-Phe-NH2 (YV[Nle]GH[dF]RCWDRF-NH2; also: Re complex) [3-5] | 83 | 45 | 33 | 81
Tyr-Val-Nle-Gly-His-D-Phe-Arg-Trp-Asp-Arg-Cys-NH2 (YV[Nle]GH[dF]RWDRC-NH2; numbers in words are those of the source; also: oxorhenium(V) N3S1 chelate complex (Re=O)) [5-1] | 101 | 92 | 95 | 98
